Source: article PMC2174252 (The Journal of Cell Biology, 1999)

Target: mouse ZO-1 expressed in Sf21 insect cells (mouse, UniProt P39447 1-1745)
Assay: pull-down

mouse ZO-1 expressed in Sf21 insect cells, sequence (P39447 whole entry): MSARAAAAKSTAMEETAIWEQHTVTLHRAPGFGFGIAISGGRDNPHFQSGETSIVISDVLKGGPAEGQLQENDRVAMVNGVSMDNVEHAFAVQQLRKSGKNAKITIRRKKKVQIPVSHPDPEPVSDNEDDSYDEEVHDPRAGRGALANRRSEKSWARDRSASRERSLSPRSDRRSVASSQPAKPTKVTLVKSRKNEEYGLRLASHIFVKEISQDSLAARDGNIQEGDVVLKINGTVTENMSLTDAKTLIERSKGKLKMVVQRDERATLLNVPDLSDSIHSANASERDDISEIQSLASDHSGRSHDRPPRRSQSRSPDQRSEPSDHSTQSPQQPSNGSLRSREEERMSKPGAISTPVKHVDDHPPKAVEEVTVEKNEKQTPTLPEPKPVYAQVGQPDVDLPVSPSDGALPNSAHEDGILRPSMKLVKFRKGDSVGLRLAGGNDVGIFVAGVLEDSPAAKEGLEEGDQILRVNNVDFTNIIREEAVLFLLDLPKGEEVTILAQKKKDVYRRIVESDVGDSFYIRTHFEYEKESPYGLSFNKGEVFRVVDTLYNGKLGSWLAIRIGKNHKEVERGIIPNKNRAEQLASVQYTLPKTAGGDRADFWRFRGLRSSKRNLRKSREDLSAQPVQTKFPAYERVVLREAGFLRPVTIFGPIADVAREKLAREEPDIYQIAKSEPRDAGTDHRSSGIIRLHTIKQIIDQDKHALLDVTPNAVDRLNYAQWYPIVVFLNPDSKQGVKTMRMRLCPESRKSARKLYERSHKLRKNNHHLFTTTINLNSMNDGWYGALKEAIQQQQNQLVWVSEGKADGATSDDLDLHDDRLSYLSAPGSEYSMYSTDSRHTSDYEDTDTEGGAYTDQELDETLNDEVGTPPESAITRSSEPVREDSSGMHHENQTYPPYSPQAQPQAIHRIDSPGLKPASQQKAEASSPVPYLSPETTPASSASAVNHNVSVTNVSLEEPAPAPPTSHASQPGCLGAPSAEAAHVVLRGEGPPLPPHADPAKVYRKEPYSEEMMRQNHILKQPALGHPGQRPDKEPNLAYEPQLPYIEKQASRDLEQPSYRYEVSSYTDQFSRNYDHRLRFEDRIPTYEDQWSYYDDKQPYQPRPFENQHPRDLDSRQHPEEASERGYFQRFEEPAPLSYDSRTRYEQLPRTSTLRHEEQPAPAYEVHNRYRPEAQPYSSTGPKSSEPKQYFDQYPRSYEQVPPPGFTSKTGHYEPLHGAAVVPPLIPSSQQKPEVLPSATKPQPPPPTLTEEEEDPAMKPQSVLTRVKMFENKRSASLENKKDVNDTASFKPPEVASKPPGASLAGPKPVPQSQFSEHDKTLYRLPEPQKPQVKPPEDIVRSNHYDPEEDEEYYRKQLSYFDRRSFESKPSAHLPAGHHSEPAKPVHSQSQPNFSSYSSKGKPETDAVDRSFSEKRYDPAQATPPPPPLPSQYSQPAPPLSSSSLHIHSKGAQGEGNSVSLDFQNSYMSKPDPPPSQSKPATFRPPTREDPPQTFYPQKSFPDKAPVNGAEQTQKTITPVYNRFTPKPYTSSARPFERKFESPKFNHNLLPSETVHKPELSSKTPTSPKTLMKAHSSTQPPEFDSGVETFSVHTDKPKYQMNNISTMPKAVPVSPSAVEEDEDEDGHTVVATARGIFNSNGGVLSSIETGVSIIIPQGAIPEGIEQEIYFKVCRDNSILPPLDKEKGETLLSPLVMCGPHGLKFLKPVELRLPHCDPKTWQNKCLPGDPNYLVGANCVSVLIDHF

B1: GST-XC(1-378), GST fused to Xenopus laevis cingulin residues 1-378 (domain or fragment, UniProt Q9PTD7 1-378, looked up)
chain: MERDIYGDMADQHIPVGQGVQIRFIGDLKENGKPRGKRSKQDSYGVAVRVQGIDGQPFVVLNSGDKAKSSFGVQIKSQEPYLNASNTSPPNYQNYSSKPRGPSRSISSESELPENPYGSRGYRPSSSHYSSASDEEQKPRGNIRGSDGLSSLPRPLQASRREELRRSQSHSSLLEPDVEESYDYDHHYSERSSTLDTTYSQSSRDSAWSRSSQKKIDNGDYPSLGYRSATSQQSTSVSNKTKKNGLSTSSPSNQSNEDIDTKPLSSVDSLINKFDIKGQVRGRTARRSQALKDERKRSQSLDGRKNYHDTADSREIIVEKQNEVQTMREPVNASNRSFNRQTLERGDISKTRLTKEWLDQDREEPVILKQQRTVQSEF
Kd: ~5 nM
